Experimental data from article PMC8176890.
Where two headings read alike, the source gives them in different places.

Legend:
[1] = molecular target: wild-type heterotrimeric human Gαi1β1γ1 (human) (UniProt P63096); experiment: MST
[2] = molecular target: wild-type heterotrimeric human Gαi1β1γ1 (human) (UniProt P63096); experiment: MST; remark: listed apart in the source
[3] = molecular target: wild-type heterotrimeric human Gαi1β1γ1 (human) (UniProt P63096); experiment: BLI
[4] = molecular target: wild-type heterotrimeric human Gαi1β1γ1 (human) (UniProt P63096); experiment: MST; remark: listed apart in the source
[5] = molecular target: wild-type heterotrimeric human Gαi1β1γ1 (human) (UniProt P63096); experiment: MST; remark: listed apart in the source

Chain of wild-type heterotrimeric human Gαi1β1γ1 (human) (P63096 whole entry, chain 1 of 3): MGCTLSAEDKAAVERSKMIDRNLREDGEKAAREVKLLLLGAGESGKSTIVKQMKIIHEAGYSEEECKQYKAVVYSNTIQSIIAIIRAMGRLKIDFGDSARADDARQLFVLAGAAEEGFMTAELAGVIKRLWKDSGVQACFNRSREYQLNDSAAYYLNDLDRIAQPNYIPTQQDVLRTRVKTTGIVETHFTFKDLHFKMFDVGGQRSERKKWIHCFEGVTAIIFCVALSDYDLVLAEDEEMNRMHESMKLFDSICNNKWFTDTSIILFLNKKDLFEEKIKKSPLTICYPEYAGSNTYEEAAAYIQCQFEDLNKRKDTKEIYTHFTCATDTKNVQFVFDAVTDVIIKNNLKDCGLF
Chain of wild-type heterotrimeric human Gαi1β1γ1 (human) (P62873 2-340, chain 2 of 3, further chain): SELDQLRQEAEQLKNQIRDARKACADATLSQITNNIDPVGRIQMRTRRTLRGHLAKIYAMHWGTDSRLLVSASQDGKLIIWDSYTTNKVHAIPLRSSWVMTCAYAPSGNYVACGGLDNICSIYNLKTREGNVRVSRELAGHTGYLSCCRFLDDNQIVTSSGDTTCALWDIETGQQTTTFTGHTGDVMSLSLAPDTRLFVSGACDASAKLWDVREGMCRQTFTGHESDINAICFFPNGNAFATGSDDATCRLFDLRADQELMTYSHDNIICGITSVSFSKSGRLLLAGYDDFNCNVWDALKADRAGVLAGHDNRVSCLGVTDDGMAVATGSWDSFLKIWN
Chain of wild-type heterotrimeric human Gαi1β1γ1 (human) (P63211 2-74, chain 3 of 3, further chain): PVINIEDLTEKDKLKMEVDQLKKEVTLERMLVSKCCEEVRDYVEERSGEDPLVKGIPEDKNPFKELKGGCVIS

Kd [1] [nM]	Kd [2] [nM]	KD of the high-affinity binding mode (2:1 model) [3] [nM]	KD of the lower-affinity binding mode (2:1 model) [3] [nM]	Kd [4] [nM]	Kd [5] [nM]	Substance
347	–	–	–	–	–	NTS-NTSR1 complex with the 5-alanine mutant TM86V-L167R E166A/K176A/K178A/S182A/R185A (from UniProt P20789 50-390)
76	1400	5.8	38	53	236	NTS-NTSR1 complex: neurotensin 8-13 bound to rat NTSR1 TM86V-L167R ΔIC3B (from UniProt P20789 50-390)
